Laboratory results as given in patent US20040258656, “High affinity TGFbeta nucleic acid ligands and inhibitors” (published 2004).

T1: TGFβ2 (transforming growth factor beta 2) (Homo sapiens, UniProt P61812 SEQ:1-112)
T1 sequence: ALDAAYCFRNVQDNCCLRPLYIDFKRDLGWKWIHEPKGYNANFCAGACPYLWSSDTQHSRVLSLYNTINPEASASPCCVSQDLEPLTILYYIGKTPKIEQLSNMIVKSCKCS


Molecular target: T1, TGFβ2 (transforming growth factor beta …)
Test: filter
Conditions: chain copies: 2 (homodimer, stated)

Binder | binding result
8.23 (ssRNA, 2'-F C and U; 2'-OH A and G) RNA: GGGAGGACGAUGCGGAGACAUCUUUGUCUCGAUUAGUCAUGUUCCUUACCUGCCCCAGACGACUCGCCCGA | no binding
8.2 (ssRNA, 2'-F C and U; 2'-OH A and G) RNA: GGGAGGACGAUGCGGAAGUAACGUUUAAGUAAAAUUCGUUCUCUCGGUAUUUGGCCAGACGACUCGCCCGA | binds
8.3 (ssRNA, 2'-F C and U; 2'-OH A and G) RNA: GGGAGGACGAUGCGGAAGUAACGUUGAAGUAAAAUUCGUUCUCUCGGCAUUUGGCCAGACGACUCGCCCGA | binds
8.28 (ssRNA, 2'-F C and U; 2'-OH A and G) RNA: GGGAGGACGAUGCGGAUGAGACCUAAUCAUCGAUCCGCUAUCUAAAACCUCACCCCAGACGACUCGCCCGA | no binding

Molecular target: T1, TGFβ2 (transforming growth factor beta …)
Test: filter
Conditions: chain copies: 2 (inferred, homodimer)

Binder | binding signal
GGGGUUAUUCAGAGUCUGUAUAGCUGACCC (ssRNA, 2'-F C and U) [21a-21(ML-136)] | 10000 x Kd of NX22284
GGAGGUUAUUACAGAGUCUGUAUAGCUACUCC (ssRNA, 2'-F C and U) [21a-21(ML-116)] | 1000 x Kd of NX22284
GGAGGUUAUUACAGAGUCUGUAUAGCUGUAC (ssRNA, 2'-F C and U) [21a-21(ML-105)] | 1000 x Kd of NX22284
GGAGGUUAUUACAGAGUCUGUAUAGCUGUACUCC (ssRNA, 2'-F C and U) [21a-21(ML-95)] | 1 x Kd of NX22284
GGAGGUUAUUACAGAGUCUGUAUAGC (ssRNA, 2'-F C and U) [21a-21(ML-97)] | 1000 x Kd of NX22284
GGAGGUUAUUAGAGUCUAUAGCCUCC (ssRNA, 2'-F C and U) [21a-21(ML-102)] | 1000 x Kd of NX22284
GGAGGUUAUUACAGAUCUGUAUAGCUGUACUCC (ssRNA, 2'-F C and U) [21a-21(ML-120)] | 1000 x Kd of NX22284
GGAGGUUAUUACAGAGUUGUAUAGCUGUACUCC (ssRNA, 2'-F C and U) [21a-21(ML-128)] | 1000 x Kd of NX22284
GGUUAUUACAGAGUCUGUAUAGCUGUACUCC (ssRNA, 2'-F C and U; 3'-3' dT cap) [NX22303] | > 100 x Kd of NX22284
GAGGUUAUUACAGAGUCUGUAUAGCUGUACUCC (ssRNA, 2'-F C and U; 3'-3' dT cap) [NX22301] | 1 x Kd of NX22284
GGGGUUAUUACAGAGUCUGUAUAGCUGUACCC (ssRNA, 2'-F C and U) [21a-21(ML-130)] | 2 x Kd of NX22284
AGGUUAUUACAGAGUCUGUAUAGCUGUACUCC (ssRNA, 2'-F C and U; 3'-3' dT cap) [NX22302] | 100 x Kd of NX22284
GGAGGUUAUUACGAGUCUGUAUAGCGUACUCC (ssRNA, 2'-F C and U) [21a-21(ML-132)] | 1000 x Kd of NX22284
GGAGGUUAUUACAGAGUCUGUAUAGCUGUACUCCCC (ssRNA, 2'-F C and U) [21a-21(ML-94)] | 0.5 x Kd of NX22284
GGGGUUAUUAAGAGUCUGUAUAGCUUACCC (ssRNA, 2'-F C and U) [21a-21(ML-138)] | 10000 x Kd of NX22284
GGAGGUUAUUACAAGUUGUAUAGCUGUACUCC (ssRNA, 2'-F C and U) [21a-21(ML-122)] | 1000 x Kd of NX22284
GGAGGUUAUUACAGAGUCUGUAUAGCGUACUCC (ssRNA, 2'-F C and U) [21a-21(ML-114)] | 1000 x Kd of NX22284
GGAGGUUAUUACAGAGUCUGUAUAGCUGUCUCC (ssRNA, 2'-F C and U) [21a-21(ML-115)] | 1000 x Kd of NX22284
GGAGGUUAUUACAGAGUCUGUAUAGCUGUACUCCCCA (ssRNA, 2'-F C and U) [NX22285] | 2 x Kd of NX22284
GGAGGUUAUUACAGAGUCUGUAUAGCUGUA (ssRNA, 2'-F C and U) [21a-21(ML-96)] | 1000 x Kd of NX22284
GGAGGUUAUACAGAGUCUGUAUAGCUGUACUCC (ssRNA, 2'-F C and U) [21a-21(ML-118)] | 1000 x Kd of NX22284
GGAGAUAUUACAGAGUCUGUAUAGCUGUACUCC (ssRNA, 2'-F C and U) [21a-21(ML-134)] | 10 x Kd of NX22284
GGAGGUUAUUAGAGUCUAUAGCUGUACUCC (ssRNA, 2'-F C and U) [21a-21(ML-101)] | 1000 x Kd of NX22284

Molecular target: T1, TGFβ2 (transforming growth factor beta …)
Test: filter
Conditions: chain copies: 2 (inferred, homodimer)
Remark: another data set of the same source

Binder | binding signal
biased clone 17 (ssRNA, 2'-F C and U) RNA: GGGAGGACGAUGCGGGGGGACUAUUAGUGAGUCUGUAUAGCACUACCCCCAGACGACUCGCCCGA | 0.8 x Kd of 21a-21
biased clone 4 (ssRNA, 2'-F C and U) RNA: GGGAGGACGAUGCGGGGAGGGUAUUACAGAGUAUGUAUAGCUGUACUCCCAGACGACUCGCCCGA | 1.4 x Kd of 21a-21
biased clone 19 (ssRNA, 2'-F C and U) RNA: GGGAGGACGAUGCGGGCAGGUUAUUACAGAGUCUGUAUAGCUGUACUGCCAGACGACUCGCCCGA | 1 x Kd of 21a-21
biased clone 18 (ssRNA, 2'-F C and U) RNA: GGGAGGACGAUGCGGGUGGAUUAUUACAGCGUCUGUAUAUCUGUACCCCCAGACGACUCGCCCGA | 1 x Kd of 21a-21
biased clone 26 (ssRNA, 2'-F C and U) RNA: GGGAGGACGAUGCGGGGUGGUUAUUACACAGUAUGUAUAGGUGUACCCCCAGACGACUCGCCCGA | 3.1 x Kd of 21a-21
biased clone 34 (ssRNA, 2'-F C and U) RNA: GGGAGGACGAUGCGGGGUGGUUAUUAGAGAGUCUGUAUAGCUCUACGCCCAGACGACUCGCCCGA | 1.7 x Kd of 21a-21
biased clone 36 (ssRNA, 2'-F C and U) RNA: GGGAGGACGAUGCGGGGAGGAUAUUAUAGAGUCUGUAUAGCUAUACCCCCAGACGACUCGCCCGA | 1.9 x Kd of 21a-21
biased clone 14 (ssRNA, 2'-F C and U) RNA: GGGAGGACGAUGCGGCGGGAUUAUUACUGAGUCUGUAUAGCAGUACCCCCAGACGACUCGCCCGA | 0.4 x Kd of 21a-21
biased clone 13 (ssRNA, 2'-F C and U) RNA: GGGAGGACGAUGCGGUGUGAAUAUUAGAGAGUCUGUAUAGCUCUACCCCCAGACGACUCGCCCGA | 0.2 x Kd of 21a-21
biased clone 35 (ssRNA, 2'-F C and U) RNA: GGGAGGACGAUGCGGGGGGAGUAUUAAAGAGUCUGUAUAGCUUUACCCCCAGACGACUCGCCCGA | 0.8 x Kd of 21a-21
biased clone 21 (ssRNA, 2'-F C and U) RNA: GGGAGGACGAUGCGGAGGGAUUAUUACAGAGUCUGUAUAGCUGUACCCCCAGACGACUCGCCCGA | 0.7 x Kd of 21a-21
biased clone 25 (ssRNA, 2'-F C and U) RNA: GGGAGGACGAUGCGGGGGCGUUAUUACAGAGUCUGUAUAGCUGUAGCCCCAGACGACUCGCCCGA | 1 x Kd of 21a-21
biased clone 10 (ssRNA, 2'-F C and U) RNA: GGGAGGACGAUGCGGGGGCAUUAUUUCAGAGUCUGUAUAGCUGUAGCCCCAGACGACUCGCCCGA | 0.3 x Kd of 21a-21
biased clone 15 (ssRNA, 2'-F C and U) RNA: GGGAGGACGAUGCGGGUGGAAUAUUACGGAGUCUGUAUAGCCGUACUCCCAGACGACUCGCCCGA | 0.4 x Kd of 21a-21
biased clone 11 (ssRNA, 2'-F C and U) RNA: GGGAGGACGAUGCGGGCGGAUUAUCACAGAGUAUGUAUAGCUGUGCCGCCAGACGACUCGCCCGA | 0.4 x Kd of 21a-21
biased clone 28 (ssRNA, 2'-F C and U) RNA: GGGAGGACGAUGCGGAGGGAAUAUUACAGAGUAUGUAUAGCUGUACCCCCAGACGACUCGCCCGA | 1 x Kd of 21a-21
biased clone 7 (ssRNA, 2'-F C and U) RNA: GGGAGGACGAUGCGGGAGGGUUAUUAUAGAGUCUGCAUAGCUAUACCCCCAGACGACUCGCCCGA | 0.3 x Kd of 21a-21
biased clone 30 (ssRNA, 2'-F C and U) RNA: GGGAGGACGAUGCGGUGAGGUUAUUACAGAGUCUGUAUAGCUGUACUCCCAGACGACUCGCCCGA | 2.4 x Kd of 21a-21
biased clone 9 (ssRNA, 2'-F C and U) RNA: GGGAGGACGAUGCGGUGAGAGUAUUACGGAGUAUGUAUAGCCGUACCCCCAGACGACUCGCCCGA | 0.3 x Kd of 21a-21
biased clone 22 (ssRNA, 2'-F C and U) RNA: GGGAGGACGAUGCGGGUGGAUUAUUACAGAGUCUGUAUAGCUGUACCCCCAGACGACUCGCCCGA | 1.1 x Kd of 21a-21
biased clone 29 (ssRNA, 2'-F C and U) RNA: GGGAGGACGAUGCGGGGAGUUUAUUACAGCGUCUGUAUAUCUGUAGCCCCAGACGACUCGCCCGA | 1 x Kd of 21a-21
biased clone 20 (ssRNA, 2'-F C and U) RNA: GGGAGGACGAUGCGGGGUAGAUAUCACUGAGUCUGUAUAGCAGUGUCCCCAGACGACUCGCCCGA | 5.7 x Kd of 21a-21
biased clone 2 (ssRNA, 2'-F C and U) RNA: GGGAGGACGAUGCGGAGGCGUUAUUAGAGAGUCUGUAUAGCUCUAGCCCCAGACGACUCGCCGA | 0.6 x Kd of 21a-21
